Tests used:
[1] = test system: apoA-I rHDL; experiment: Inactivation kinetics of human PON1 192 isozymes on rHDL-apoA-I (NTA/β-mercaptoethanol); format: biochemical; settings: 50-fold molar excess rHDL-apoA-I; NTA and β-mercaptoethanol each 5 mM, 25° C.
Description: FIGS. 5A-B are graphs showing the inactivation and catalytic stimulation of the human PON1 192R/Q isozymes. FIG. 5A is a line graph showing the inactivation kinetics of human PON1-192R and -192Q in the presence of rHDL-apoA-I. The delipidated isozymes (0.2 μM) were incubated with a 50-fold molar excess of rHDL-apoA-I in activity buffer, and subjected to inactivation by NTA and β-mercaptoethanol (each at 5 mM) at 25° C. Residual activity determined as above (FIG. 1) and data were fitted to a double-exponential function. FIG. 5B is a bar graph showing stimulation of the enzymatic activity of human PON1-192R and -192Q by rHDL-apoA-I. The delipidated isozymes were incubated with a 50-fold molar excess of rHDL-apoA-I, and enzymatic activity was determined with various substrates (at 1 mM for all the substrates, except TBBL at 0.25 mM). The activity is presented in relation to the initial activity of the delipidated enzymes (percentage of stimulation). Each bar represents the mean and S.D. of at least two independent measurements;
Human PON1-192R and Q isozymes purified from pooled blood samples [Gan, K. N., et al., Drug Metab Dispos, 1991. 19(1): p. 100-6] were kindly provided by Dr. Dragomir Draganov (University of Michigan, Ann Arbour), and stored in presence of 0.1% tergitol and 20% glycerol. Prior to assay, these samples were briefly delipidated [Gaidukov, L. and D. S. Tawfik, Biochemistry, 2005. 44(35): p. 11843-54] and dialyzed against activity buffer to remove the tergitol and glycerol that interfere with HDL binding. Dialyzed samples (0.2 μM) were incubated with rHDL (10 μM). Stability assays were performed at 25° C., in activity buffer supplemented with nitrilotriacetic acid (NTA) and β-mercaptoethanol, both at 5 mM. Data analysis was performed as described above for rePON1s. Stimulation of enzymatic activities was measured with various substrates at 1 mM concentration, except for TBBL (0.25 mM).
The progress of inactivation of human PON1 isozymes anchored on rHDL-apoA-I is illustrated in FIG. 5A. Inactivation of both isozymes followed a two-phase kinetics with similar inactivation rates, but different partitioning between the HDL-bound and unbound phases, as detailed in Table 4 hereinbelow. Amplitudes (A) and kinetic rates of inactivation (k^inactiv) were derived by fitting the data to a double-exponential curve.

[2] = Dihydrocoumarin hydrolysis by PON1 isozymes (Vmax); format: biochemical; settings: Vmax^Q=1.125*Vmax^R
Description: Determination of a total PON1 level may be effected by any method known in the art. For example, the level of total PON1 may be determined using an antibody specific for PON1. Preferably, the level of total PON1 is determined by measuring the level of total enzymatically active PON1. Thus for example, the level of total PON1 may be measured using an ELISA assay. Such assays are known in the art—see for example Blatter et al, Biochem J 304 (Pt 2): 549-554. An exemplary method for measuring total PON1's serum concentration comprises assaying PON1 dihydrocoumarin hydrolysis as described in Example 3.

B1: human PON1-192Q: human PON1 192Q isozyme purified from pooled blood samples (protein)
chain: AKLIALTLLGMGLALFRNHQSSYQTRLNALREVQPVELPNCNLVKGIETGSEDLEILPNGLAFISSGLKYPGIKSFNPNSPGKILLMDLNEEDPTVLELGITGSKFDVSSFNPHGISTFTDEDNAMYLLVVNHPDAKSTVELFKFQEEEKSLLHLKTIRHKLLPNLNDIVAVGPEHFYGTNDHYFLDPYLQSWEMYLGLAWSYVVYYSPSEVRVVAEGFDFANGINISPDGKYVYIAELLAHKIHVYEKHANWTLTPLKSLDFNTLVDNISVDPETGDLWVGCHPNGMKIFFYDSENPPASEVLRIQNILTEEPKVTQVYAENGTVLQGSTVASVYKGKLLIGTVFHKALYCEL
A2(%) (slow phase, HDL-bound fraction) [1]: 72%
k1^inactiv (first, fast phase) [1]: 0.6 h⁻¹
k2^inactiv (second, slow phase) [1]: 0.01 h⁻¹
ratio of Vmax of PON1-192Q and -192R isozymes toward dihydrocoumarin [2]: 1.125
